Data: US8933202B2, “AXL antibodies” (U3 Pharma GmbH, priority 2007, dated 2015)

Key:
[1] = system: Akt-Kinase; assay: Akt-Kinase (Ser473) phosphorylation ELISA; assay type: cell-based; conditions: 400 ng/ml Gas6
Description: Furthermore, ELISA experiments were performed in order to investigate whether the rat anti-AXL antibodies of the invention are able to block ligand Gas6-mediated activation of Akt-Kinase. Gas6-mediated Akt-Kinase activation was detected by increased protein (Ser473) phosphorylation. In brief, on day 1. 2×10^4 cells per well were seeded in flat-bottom 96 well plates. The next day, normal growth medium was replaced by serum-reduced (DMEM, 0.5% FCS for NIH3T3-AXL cl.7 fibroblasts) or serum-free (for cancer cell lines) medium to starve cells for 36 h. […] Medium was flicked out and cells were fixed with 4% formaldehyde in PBS (pH 7.5) for 30 min at room temperature. Formaldehyde solution was removed and cells were washed twice with wash buffer (PBS, 0.1% Tween 20). […] Tetramethylbenzidine (TMB, Calbiochem) was added and monitored at 620 nm.
In order to investigate whether the rat anti-AXL antibodies of the invention and the corresponding chimeric anti-AXL antibodies of the invention were able to block ligand Gas6-mediated activation of the Akt-Kinase in NIH3T3-AXL cl.7 fibroblasts to similar extent, ELISA experiments were performed. Antibody-mediated Akt-Kinase inhibition was detected by decreased protein (Ser473) phosphorylation. […] Tetramethylbenzidine (TMB, Calbiochem) was added and monitored at 620 nm.

[2] = system: NIH3T3-AXL cl.7 fibroblasts; assay: Boyden chamber/transwell migration assay; assay type: cell-based; conditions: 10 μg/ml antibody, with or without 400 ng/ml Gas6, 7 h
Description: Transmigration experiments were performed in order to investigate whether the antibodies of the invention block cell migration. For this purpose, in the morning of day 1, NIH3T3-AXL cl.7 cells were seeded on 15 cm dished in normal growth medium, which in the evening was replaced by serum-reduced medium (DMEM, 0.5% FCS) in order to starve cells for 36 h. The next day, a FluoroBlock 96 well plate (Becton Dickinson #351164, 8 μm pore size) was coated with 10 μg collagen 1/ml 0.1 M acetic acid over night at 37° C. On day 3, the serum-reduced medium (DMEM, 0.5% FCS) was replaced by serum-free medium (DMEM, 0% FCS, 0.1% BSA) for another 4 h. Cells were harvested with 10 mM EDTA in PBS and pre-incubated with rat anti-AXL antibodies 4A6, 11B7 or 2A1 at a cell density of 4×10^5 cells/ml and an antibody concentration of 10 μg/ml for 45 min. 50 μl cell suspension (20,000 cells) per well were then placed in the top chamber of the FluoroBlock 96-well plate, 225 μl medium (DMEM, 0% FCS, 0.1% BSA) with or without 400 ng/ml mouse Gas6 (R&D Systems) were used per well in the bottom chamber. Cells were left to migrate for 7 h at 37° C. and stained afterwards with 4.2 μM calcein-AM (Molecular Probes #C3099) in PBS, 1 mM CaCl2, 1 mM MgCl2 for 1 h at 37° C. Using a Victor plate reader (Perkin Elmer), the fluorescence of each well was measured at a wavelength of 530 nm.

B1: 11B7: antagonistic rat anti-AXL monoclonal antibody, rat IgG1 (antibody, V domains shown)
VL: DIQMTQAPSSLPASLGDRVTITCRASQDIGNYLRWFQQKPGKSPRLMISGATNLAAGVPSRFSGSRSGSDYSLTISSLESEDMADYYCLQSKESPWTFGGGTKLELK
VH: EVQLQESGPGLVKPSQSLSLTCSVTGYSITSNYWGWIRKFPGDKMEWMGYITYSGSTSYNPSLKSRISITRDTSKNQFFLQLNSVTSEDTATYYCAITTFYYWGQGVMVTVSS
[1]; 50 ng/ml to 1 μg/ml (11B7, ch11B7) or to 10 μg/ml (11D5, ch11D5), NIH3T3-AXL cl.7
  ligand-mediated Akt-Kinase activation, rat versus chimeric antibody: able to inhibit ligand-mediated Akt-Kinase activation to similar extent
[1]; 10 μg/ml antibody, NIH3T3-AXL cl.7 fibroblasts and CaLa-1 lung cancer cells
  ligand-mediated Akt-Kinase activation (phosphorylation): able to block or reduce ligand-mediated Akt-Kinase activation
[2]
  directed cell migration: reduced both basal and Gas6-induced migration
